The source of these data is PMC9482650, “Quantitative fragmentomics allow affinity mapping of interactomes” (Nature Communications, 2022).

Among the targets are PDZD9, Q8IXQ8; MAGI3_4, Q5TCQ9; PTPN13_2, Q12923; DLG5_2, Q8TDM6; MAGI3_3, Q5TCQ9; AHNAK2, Q8IVF2; MAGIX, Q9H6Y5; MAGI3_5, Q5TCQ9; PDLIM4, P50479; TJP1_1, Q07157; RIMS1, Q86UR5.
What all share (assay): holdup assay
Settings in all cases: plain residues with an end cap or a label only (N-terminal biotin on a linker: (peg)3)

A further experiment has as its target T1, PDLIM3, Q53GG5.
T1 sequence (Q53GG5 1-94, limits assumed, looked up): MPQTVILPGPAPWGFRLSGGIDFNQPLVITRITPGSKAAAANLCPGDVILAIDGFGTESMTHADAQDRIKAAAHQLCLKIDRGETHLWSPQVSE

A further experiment concerns the target T2, MPDZ_7, O75970.
T2 sequence (O75970 1146-1253, limits assumed, looked up): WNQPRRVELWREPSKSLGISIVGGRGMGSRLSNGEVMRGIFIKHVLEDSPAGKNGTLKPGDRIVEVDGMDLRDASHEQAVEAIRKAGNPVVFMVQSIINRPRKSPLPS

Another experiment addresses T3, GRIP1_1, Q9Y3R0.
T3 sequence (Q9Y3R0 48-146, limits assumed, looked up): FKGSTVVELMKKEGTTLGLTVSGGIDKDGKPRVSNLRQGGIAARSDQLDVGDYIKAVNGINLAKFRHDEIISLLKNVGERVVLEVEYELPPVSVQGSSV

The next experiment addresses T4, DLG3_1, Q92796.
T4 sequence (Q92796 125-227, limits assumed, looked up): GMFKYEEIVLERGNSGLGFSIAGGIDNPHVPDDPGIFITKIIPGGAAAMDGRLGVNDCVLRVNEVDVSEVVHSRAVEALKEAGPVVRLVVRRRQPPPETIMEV

Another experiment deals with T5, MPDZ_3, O75970.
T5 sequence (O75970 372-473, limits assumed, looked up): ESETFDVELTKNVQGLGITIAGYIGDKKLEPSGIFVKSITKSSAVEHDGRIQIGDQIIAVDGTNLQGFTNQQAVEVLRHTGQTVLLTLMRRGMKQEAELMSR

The target of another experiment is T6, CNKSR1, Q969H4.
T6 sequence (Q969H4 191-295, limits assumed, looked up): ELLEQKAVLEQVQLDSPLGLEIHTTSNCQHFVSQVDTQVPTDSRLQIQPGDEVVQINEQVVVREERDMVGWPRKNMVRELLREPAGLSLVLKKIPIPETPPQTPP

The target of the next experiment is T7, PDZD8, Q8NEN9.
T7 sequence (Q8NEN9 361-459, limits assumed, looked up): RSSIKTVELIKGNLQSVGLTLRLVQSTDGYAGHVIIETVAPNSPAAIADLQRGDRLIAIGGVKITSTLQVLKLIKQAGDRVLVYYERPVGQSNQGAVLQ

A further experiment addresses T8, MPP5, Q8N3R9.
T8 sequence (Q8N3R9 251-346, limits assumed, looked up): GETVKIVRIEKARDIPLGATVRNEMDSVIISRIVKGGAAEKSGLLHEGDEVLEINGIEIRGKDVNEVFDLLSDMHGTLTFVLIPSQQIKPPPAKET

The target in the next experiment is T9, PDZD7_1, Q9H5P4.
T9 sequence (Q9H5P4 81-178, limits assumed, looked up): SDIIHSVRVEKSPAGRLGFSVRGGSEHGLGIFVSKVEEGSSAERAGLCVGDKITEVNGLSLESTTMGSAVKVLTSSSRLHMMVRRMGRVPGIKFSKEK

The target in another experiment is T10, USH1C_3, Q9Y6N9.
T10 sequence (Q9Y6N9 447-547, limits assumed, looked up): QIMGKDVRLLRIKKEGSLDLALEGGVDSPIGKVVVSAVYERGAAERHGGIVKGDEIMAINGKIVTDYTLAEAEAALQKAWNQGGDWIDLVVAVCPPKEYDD

The target in a further experiment is T11, SIPA1L3, O60292.
T11 sequence (O60292 961-1052, limits assumed, looked up): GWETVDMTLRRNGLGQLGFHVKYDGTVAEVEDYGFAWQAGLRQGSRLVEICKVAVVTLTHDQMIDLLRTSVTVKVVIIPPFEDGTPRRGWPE

The target in a further experiment is T12, PDZD11, Q5EBL8.
T12 sequence (Q5EBL8 42-139, limits assumed, looked up): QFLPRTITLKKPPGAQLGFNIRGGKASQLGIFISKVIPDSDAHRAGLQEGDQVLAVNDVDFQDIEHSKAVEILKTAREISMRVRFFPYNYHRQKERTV

The target of another experiment is T13, PDZD4, Q76G19.
T13 sequence (Q76G19 125-224, limits assumed, looked up): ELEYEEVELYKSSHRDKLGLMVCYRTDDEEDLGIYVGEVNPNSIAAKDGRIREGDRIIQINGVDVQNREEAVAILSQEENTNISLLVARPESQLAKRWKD

Sequence of PDLIM4, P50479 (P50479 1-83): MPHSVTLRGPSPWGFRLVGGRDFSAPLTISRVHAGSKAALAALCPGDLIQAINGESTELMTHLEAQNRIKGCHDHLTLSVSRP
Sequence of MAGIX, Q9H6Y5 (Q9H6Y5 118-211): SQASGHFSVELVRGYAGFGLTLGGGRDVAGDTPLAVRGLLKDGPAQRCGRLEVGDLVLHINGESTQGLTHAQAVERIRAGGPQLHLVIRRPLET
Sequence of AHNAK2, Q8IVF2 (Q8IVF2 108-193): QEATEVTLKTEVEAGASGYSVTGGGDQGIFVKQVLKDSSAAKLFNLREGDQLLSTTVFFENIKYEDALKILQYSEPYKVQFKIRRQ
Sequence of MAGI3_4, Q5TCQ9 (Q5TCQ9 716-815): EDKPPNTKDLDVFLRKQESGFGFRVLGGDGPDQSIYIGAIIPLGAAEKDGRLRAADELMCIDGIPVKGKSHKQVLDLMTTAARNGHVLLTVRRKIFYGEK
Sequence of PTPN13_2, Q12923 (Q12923 1363-1462): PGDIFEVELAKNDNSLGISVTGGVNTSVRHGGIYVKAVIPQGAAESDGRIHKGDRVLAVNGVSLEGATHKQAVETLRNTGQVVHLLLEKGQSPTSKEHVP
Sequence of TJP1_1, Q07157 (Q07157 18-120): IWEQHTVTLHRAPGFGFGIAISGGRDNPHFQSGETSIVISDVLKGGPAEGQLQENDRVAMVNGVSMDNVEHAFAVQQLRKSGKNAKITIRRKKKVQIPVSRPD
Sequence of RIMS1, Q86UR5 (Q86UR5 584-692): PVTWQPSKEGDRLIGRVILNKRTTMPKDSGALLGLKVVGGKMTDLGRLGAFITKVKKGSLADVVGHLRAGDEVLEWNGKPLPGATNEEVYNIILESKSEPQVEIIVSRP
Sequence of DLG5_2, Q8TDM6 (Q8TDM6 714-800): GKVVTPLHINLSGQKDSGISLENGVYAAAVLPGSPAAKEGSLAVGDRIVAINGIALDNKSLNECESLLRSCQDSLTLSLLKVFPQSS
Sequence of MAGI3_3, Q5TCQ9 (Q5TCQ9 572-655): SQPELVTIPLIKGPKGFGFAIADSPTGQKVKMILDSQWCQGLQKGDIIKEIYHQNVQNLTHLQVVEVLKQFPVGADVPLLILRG
Sequence of MAGI3_5, Q5TCQ9 (Q5TCQ9 847-941): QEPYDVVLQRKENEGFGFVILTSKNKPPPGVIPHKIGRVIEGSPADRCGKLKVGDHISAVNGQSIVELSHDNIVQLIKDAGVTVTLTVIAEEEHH
Sequence of PDZD9, Q8IXQ8 (Q8IXQ8 23-120): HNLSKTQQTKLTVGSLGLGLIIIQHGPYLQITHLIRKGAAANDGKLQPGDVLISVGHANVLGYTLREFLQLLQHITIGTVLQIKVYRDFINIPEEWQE

By pKd is commonly meant the Kd on a negative log10 scale, so that one unit is a factor of ten. For QQSMSSADSTQA [SARS-Cov2-N, P0DTC9], the pKd result with PDLIM3, Q53GG5 is recorded as “below the threshold”; with MPDZ_7, O75970, “below the threshold”; with PDZD9, Q8IXQ8 it was “below the threshold”; with GRIP1_1, Q9Y3R0, “below the threshold”; with DLG3_1, Q92796, “below the threshold”; with MPDZ_3, O75970 it was “below the threshold”. For the same molecule, the pKd result is “below the threshold” in the experiment with MAGI3_4, Q5TCQ9; “below the threshold” in the experiment with PTPN13_2, Q12923; “below the threshold” with CNKSR1, Q969H4; “below the threshold” with PDZD8, Q8NEN9; “below the threshold” with DLG5_2, Q8TDM6; 3.78 with MAGI3_3, Q5TCQ9. Moreover, the negative-log Kd (pKd) result with AHNAK2, Q8IVF2 is recorded as “below the threshold”; with MPP5, Q8N3R9, “below the threshold”; with PDZD7_1, Q9H5P4, “below the threshold”; with MAGIX, Q9H6Y5, “below the threshold”; with USH1C_3, Q9Y6N9 it was “below the threshold”; in the experiment with MAGI3_5, Q5TCQ9, “below the threshold”. In addition, the pKd entry is given as “below the threshold” with SIPA1L3, O60292; “below the threshold” with PDZD11, Q5EBL8; “below the threshold” with PDLIM4, P50479; “below the threshold” in the experiment with TJP1_1, Q07157; “below the threshold” in the experiment with RIMS1, Q86UR5; “below the threshold” in the experiment with PDZD4, Q76G19.
